Assay results published in patent publication US20190046600.

Tests used:
[1] = biological target: T1, Ac-DEVD-CHO
T1 chain: DEVD

[2] = biological target: T2, HILR-030 (cyclo-[Pro-Arg-Gly-Pro-Arg-Pro-Val-Trp-Trp-Gpa-Gpa-Trp-Trp-Gpa-Gpa-Trp-Trp])
T2 chain: PRGPRPVWWXXWWXXWW

B1: recombinant human caspase 3 enzyme (protein)
chain: SGISLDNSYKMDYPEMGLCIIINNKNFHKSTGMTSRSGTDVDAANLRETFRNLKYEVRNKNDLTREEIVELMRDVSKEDHSKRSSFVCVLLSHGEEGIIFGTNGPVDLKKITNFFRGDRCRSLTGKPKLFIIQACRGTELDCGIETDSGVDDDMACHKIPVEADFLYAYSTAPGYYSWRNSKDGSWFIQSLCAMLKQYADKLEFMHILTRVNRKVATEFESFSFDATFHAKKQIPCIVSMLTKELYFYH
caspase-3 activity (Apo-ONE Homogeneous Caspase-3/7 assay, 2 h co-incubation with substrate or enzyme) [1]: Both DEVD-CHO and HILR-030 inhibited the caspase-3 activity in a dose-dependent fashion | caspase-3 activity (Apo-ONE Homogeneous Caspase-3/7 assay, cleavage of Z-DEVD-R110, recombinant enzyme) [1]: Ac-DEVD-CHO inhibited the activity of caspase-3 in a dose-dependent manner, giving rise to IC50s within the expected range according to the inhibitor specification sheet | caspase-3 activity (Apo-ONE Homogeneous Caspase-3/7 assay, 2 h co-incubation with substrate or enzyme) [2]: Both DEVD-CHO and HILR-030 inhibited the caspase-3 activity in a dose-dependent fashion
